B1: AB5-20 (antibody, V domains shown)
VH: QVQLVESGGGVVQPGRSLRLSCTASGFTFRHYGLHWVRQAPGKGLEWVAVILYDGSDEDYRDSVKGRFTISRDNSKNTLYLQMNSLRPEDTAVYYCAKQSGPYCSGGNCYSGHFDYWGQGTPVSVSS
VL: DIQMTQSPSSLSASVGDRVTITCQASQDISKSLSWYEQKPGKAPRLLIFEASNLETGVPSRFSGSGSGTSFSFTISSLQPEDFATYYCQQYDNVPLTFGGGTKVERK
B2: AB5-5 (antibody, V domains shown)
VH: QISLKESGPTLVQPTQTLTLTCTFSGFSLSSSGVGVGWIRQPPGKALEWLALLYWNDDKRYSPSLRTRLTITKDSSKNQVVLTMTNMDPMDTATYYCAHPRQTTVTTVFGLYPRPAAFDVWGPGTMVTVSS
VL: QSFLTQPPSVSGAPGQRVTISCTGSSSNIGAGYGVDWYQQLPGTAPKLLIYDNNNRPSGVPDRFSGSTSGTSASLAITGLHAEDEADYYCQSYDRSLSGSVVFGGGTKLTVL
B3: AB5-12 (antibody, V domains shown)
VH: QVQLQESGPGLVRPSQALSLTCTVSGGSISSEGYYWGWIRQHPGKGLEWIGYIYYTGNAYYNPSLQSRIDISVDTSANQFSLRLNSVTAADTAVYYCASDSFKGGFDSWGQGALVTVSS
VL: EIVLTQSPTTLSLSPGERATLSCRASQTVSGSVAWYQQKPGQAPRLVIYDVSYRATGIPARFSGSGSGTDFTLTISSLEPEDFAVYYCQERRKAFGQGTTVEIK
B4: AB5-16 (antibody, V domains shown)
VH: QALMVQSEAAVKKPGASVKVSCKATGDAFSNHYLHWLRQAPGQGLEWLGIINPGAGSTTYAQKFQGRLTVTTDTSTNTVYMELSSLRSDDTAVYYCARDGAFIPSSYYYGMDVWGQGTTVTVSS
VL: EIVLTQSPGTLALSPGERATLSCRASQSVSSSYLAWYQQKPGQAPRLLIYGASSRATGVPDRFSGSGSGTDFTLTVSSLEPEDFAVYYCQQREAFGQGTKVEVK
B5: AB6-17 (antibody, V domains shown)
VH: QLQLQESGPGLVESSETLSLTCTVSSGSISRSTYYWGWIRQPPGKGMEWIGSISSGGSTYYNPSLNSRVTISIDTSKNQFSLKLRSVTAADTAVYYCARALQWPSPRIDYWAQGTLVTVSS
VL: DIQMTQSPSSLSASVGDRVTITCRASQSISSYLNWYQHKPGKAPKLLIYAASSLESGVPSRFTGSGSGTDFTLTIDSLQPEDFATYYCQQSYSTPLFTFGPGTTVDIK

Columns and labels:
Experiment in all cases: ELISA
Settings in all cases: both partners purified
[1] = biological target: SARS-CoV-2 wild-type (WT) receptor-binding domain (RBD) (SARS-CoV-2, wild type (Wuhan-Hu-1 …, UniProt P0DTC2))
[2] = biological target: T1, angiotensin-converting enzyme-2 (ACE2), biotinylated (Homo sapiens, assumed, UniProt Q9BYF1, biotin)
T1 construct: also called host protein

[3] = biological target: SARS-CoV-2 wild-type (WT) N-terminal domain (NTD) of the spike protein (SARS-CoV-2, wild type (Wuhan-Hu-1 …, UniProt P0DTC2))

T1 sequence (Q9BYF1 18-805): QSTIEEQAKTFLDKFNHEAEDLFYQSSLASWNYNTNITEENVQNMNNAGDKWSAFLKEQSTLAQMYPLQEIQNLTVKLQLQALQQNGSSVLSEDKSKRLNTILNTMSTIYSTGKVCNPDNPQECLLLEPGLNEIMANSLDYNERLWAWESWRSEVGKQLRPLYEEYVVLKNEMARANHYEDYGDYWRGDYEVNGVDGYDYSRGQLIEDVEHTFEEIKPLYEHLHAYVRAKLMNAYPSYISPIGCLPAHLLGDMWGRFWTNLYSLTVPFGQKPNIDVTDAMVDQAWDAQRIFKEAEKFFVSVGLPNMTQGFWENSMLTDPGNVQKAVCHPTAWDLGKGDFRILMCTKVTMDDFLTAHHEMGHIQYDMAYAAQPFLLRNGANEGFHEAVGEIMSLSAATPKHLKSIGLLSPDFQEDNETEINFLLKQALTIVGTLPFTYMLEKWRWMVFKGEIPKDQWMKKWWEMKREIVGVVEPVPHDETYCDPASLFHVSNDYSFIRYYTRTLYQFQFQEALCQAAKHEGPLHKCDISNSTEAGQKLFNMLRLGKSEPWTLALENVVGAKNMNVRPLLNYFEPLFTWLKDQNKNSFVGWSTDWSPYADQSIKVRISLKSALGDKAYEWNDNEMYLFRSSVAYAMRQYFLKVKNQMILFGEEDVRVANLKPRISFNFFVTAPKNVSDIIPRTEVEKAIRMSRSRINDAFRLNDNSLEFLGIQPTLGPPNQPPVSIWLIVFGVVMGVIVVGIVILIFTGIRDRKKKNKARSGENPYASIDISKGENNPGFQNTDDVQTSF

Binder | binding result [1] | binding result [2] | binding result [3]
B1 | binds | no binding | –
B2 | no binding | – | no binding
B3 | no binding | – | no binding
B4 | binds | no binding | –
B5 | binds | no binding | –
